In patent publication US10654939 (BEIJING MABWORKS BIOTECH, dated 2020):

Columns and labels:
[1] = biological target: T1, recombinant human CD40 (ECD)-his (human, UniProt P25942 21-193); assay: SPR (Biacore 8K), hCD40(ECD)-his coupled to chip, antibody injected
T1 construct: Bought protein; also called hCD40(ECD)-his; TNFRSF5
Description: SPR assays were used to determine the binding affinity of the chimetic or humanized anti-CD40 antibodies to human CD40 with the BIAcore™ 8K instrument (GE Life Sciences). Briefly, 100-200 response units (RU) of human CD40 (ECD)-his protein (Sino Biological, CN, Cat #: 10774-H08H) were coupled to CM5 biosensor chips (Cat #: BR-1005-30, GE Life Sciences), followed by blocking of un-reacted groups with 1M ethanolamine. Serially diluted antibodies at concentrations ranging from […] were injected into the SPR running buffer (HBS-EP buffer, pH7.4, GE Life Sciences; US; Cat #: BR-1006-69) at 30 μL/minute. The binding capacity was calculated with the RUs of blank controls subtracted. The association rate (k_a) and dissociation rate (k_d) were calculated using the one-to-one Langmuir binding model (BIA Evaluation Software, GE Life Sciences). The equilibrium dissociation constant K_D was calculated as the k_d/k_a ratio.

[2] = biological target: T2, rhesus CD40 expressed on HEK293A cells (rhesus monkey, UniProt P25942 21-277 (human entry)); assay: FACS on HEK293A/rhesus CD40 cells, serially diluted antibody (Example 14, protocol of Example 5)
T2 construct: also called HEK293A/rhesusCD40
T2 chain: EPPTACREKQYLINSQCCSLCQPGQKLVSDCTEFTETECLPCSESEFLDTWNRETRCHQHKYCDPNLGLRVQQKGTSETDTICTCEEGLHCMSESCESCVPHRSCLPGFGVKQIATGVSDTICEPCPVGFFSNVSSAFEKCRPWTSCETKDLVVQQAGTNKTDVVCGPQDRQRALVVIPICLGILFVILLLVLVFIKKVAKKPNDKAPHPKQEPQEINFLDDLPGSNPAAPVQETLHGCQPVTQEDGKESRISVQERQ
Description: Example 5 Mouse Anti-CD40 Monoclonal Antibodies Bound to Human and Rhesus CD40 Expressed on HEK293A Cells To further determine whether anti-CD40 antibodies bound to human, monkey or mouse CD40 expressed on HEK293A cells, a cell-based binding assay by FACS was performed using the HEK293A cells stably overexpressing human, monkey or mouse CD40 as generated in Example 1, respectively. Briefly, 10^5 HEK293A cells were seeded into each well of the 96-well plates and serially diluted anti-CD40 antibodies were added to the plates. After incubated at 4° C. for 1 hour, plates were washed 3 times with PBST. Then, an APC coupled Goat Anti-Mouse IgG (BioLegen, US, Cat #: 405308) diluted 500× was added to the plates. After incubation at 4° C. for 1 hour, the plates were washed with PBS for 3 times and then cell fluorescence was monitored using a FACS machine (BD).
The chimeric and humanized anti-CD40 antibodies were further characterized for their ability of binding to HEK293A/humanCD40 cells and HEK293A/rhesus CD40 cells, following the protocols described in Example 5. They were also tested for their ability to activate CD40 signaling in HEK-Blue assay, and to promote dendritic cell maturation, following the protocols in Example 7 and Example 9, respectively, the dendritic cells collected form three healthy human donors. IL-12(p40) secretion by the dendritic cells was measured by using human IL12(p40) ELISA kit (BD, US, Cat #: 551116) following themanufactor's instruction.

[3] = biological target: T3, mouse CD40 expressed on HEK293A cells (mouse, UniProt P27512 20-289); assay: FACS, HEK293A/mouseCD40 cells
T3 construct: also called HEK293A/mouseCD40
T3 sequence (P27512 20-289 limits assumed): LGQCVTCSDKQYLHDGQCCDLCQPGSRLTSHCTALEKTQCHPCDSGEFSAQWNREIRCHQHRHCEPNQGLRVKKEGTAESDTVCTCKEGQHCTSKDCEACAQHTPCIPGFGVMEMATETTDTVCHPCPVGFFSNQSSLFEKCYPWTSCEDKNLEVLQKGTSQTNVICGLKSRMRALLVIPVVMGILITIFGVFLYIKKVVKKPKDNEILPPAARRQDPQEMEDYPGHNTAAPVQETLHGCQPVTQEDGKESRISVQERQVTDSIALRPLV

T1 sequence (P25942 21-193): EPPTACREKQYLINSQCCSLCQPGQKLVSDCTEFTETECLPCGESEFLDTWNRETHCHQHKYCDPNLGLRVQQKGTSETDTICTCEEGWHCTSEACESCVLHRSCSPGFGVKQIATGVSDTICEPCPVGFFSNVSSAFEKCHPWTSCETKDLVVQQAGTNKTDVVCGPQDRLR

Row | Binder | Kd [1] [nM] | koff [1] [s⁻¹] | kon [1] [M⁻¹ s⁻¹] | binding result [2] | EC50 (read off the curve) [2] [µg/mL] | binding result [3]
1 | 13A2-VH2VL2 (antibody, human IgG2, kappa, V domains shown, Humanized, human IgG2/kappa) VH: QVQLQESGPGLVKPSDTLSLTCAVSGYSITTNYYWNWIRQPPGKGLEWMGYINYDGSNNYNPSLKNRITISVDTSKNQFSLKLSSVTAVDTAVYYCARLDYWGQGTLVTVSS VL: DVVLTQSPLSLPVTLGQPASISCRSSQSLENSNGNTFLNWFQQRPGQSPRLLIYKVSNRFSGVPDRFSGSGSGTDFTLKISRVEAEDVGVYYCLQVTHVPFTFGQGTKLEIKR | 2.08 | 0.00171 | 823000 | binds |  | 
2 | 7B4-VH0VL0 (antibody, human IgG2, kappa, V domains shown, Humanized, human IgG2/kappa) VH: QVQLQESGPGLVKPSDTLSLTCAVSGYSITTNYYWNWIRQPPGKGLEWIGYIKYDGSNNYNPSLKNRVTMSVDTSKNQFSLKLSSVTAVDTAVYYCARLDYWGQGTLVTVSS VL: DVVMTQSPLSLPVTLGQPASISCRSSQSLENSNGNTFLNWFQQRPGQSPRRLIYKVSNRFSGVPDRFSGSGSGTDFTLKISRVEAEDVGVYYCLQVTHVPFTFGQGTKLEIKR | 2.47 | 0.0068 | 2.75e+06 |  | ~0.2 | 
3 | 7B4-VH2VL3 (antibody, human IgG2, kappa, V domains shown, Humanized, human IgG2/kappa) VH: QVQLQESGPGLVKPSDTLSLTCAVSGYSITTNYYWNWIRQPPGKGLEWMGYIKYDGSNNYNPSLKNRITISVDTSKNQFSLKLSSVTAVDTAVYYCARLDYWGQGTLVTVSS VL: DVVLTQSPLSLPVTLGQPASISCRSSQSLENSNGNTFLNWFQQRPGQSPRLLIYKVSNRFSGVPDRFSGSGSGTDFTLKISRVEAEDVGVYFCLQVTHVPFTFGSGTKLEIKR | 3.6 | 0.00639 | 1.78e+06 |  | ~0.2 | 
4 | 7B4-VH3VL2 (antibody, human IgG2, V domains shown, Humanized, human IgG2/kappa) VH: QVQLQESGPGLVKPSDTLSLTCAVSGYSITTNYYWNWIRQPPGNKLEWMGYIKYDGSNNYNPSLKNRITISVDTSKNQFSLKLSSVTAVDTAVYYCARLDYWGQGTLVTVSS VL: DVVLTQSPLSLPVTLGQPASISCRSSQSLENSNGNTFLNWFQQRPGQSPRLLIYKVSNRFSGVPDRFSGSGSGTDFTLKISRVEAEDVGVYYCLQVTHVPFTFGQGTKLEIKR | 4.2 | 0.00615 | 1.46e+06 |  | ~0.2 | 
5 | 7B4-VH3VL3 (antibody, human IgG2, V domains shown, Humanized, human IgG2/kappa) VH: QVQLQESGPGLVKPSDTLSLTCAVSGYSITTNYYWNWIRQPPGNKLEWMGYIKYDGSNNYNPSLKNRITISVDTSKNQFSLKLSSVTAVDTAVYYCARLDYWGQGTLVTVSS VL: DVVLTQSPLSLPVTLGQPASISCRSSQSLENSNGNTFLNWFQQRPGQSPRLLIYKVSNRFSGVPDRFSGSGSGTDFTLKISRVEAEDVGVYFCLQVTHVPFTFGSGTKLEIKR | 2.99 | 0.00488 | 2.13e+06 |  | ~0.2 | 
6 | 13A2-VH0VL0 (antibody, human IgG2, kappa, V domains shown, Humanized, human IgG2/kappa) VH: QVQLQESGPGLVKPSDTLSLTCAVSGYSITTNYYWNWIRQPPGKGLEWIGYINYDGSNNYNPSLKNRVTMSVDTSKNQFSLKLSSVTAVDTAVYYCARLDYWGQGTLVTVSS VL: DVVMTQSPLSLPVTLGQPASISCRSSQSLENSNGNTFLNWFQQRPGQSPRRLIYKVSNRFSGVPDRFSGSGSGTDFTLKISRVEAEDVGVYYCLQVTHVPFTFGQGTKLEIKR | 28.8 | 0.0114 | 396000 | binds |  | 
7 | 13A2-VH2VL3 (antibody, human IgG2, kappa, V domains shown, Humanized, human IgG2/kappa) VH: QVQLQESGPGLVKPSDTLSLTCAVSGYSITTNYYWNWIRQPPGKGLEWMGYINYDGSNNYNPSLKNRITISVDTSKNQFSLKLSSVTAVDTAVYYCARLDYWGQGTLVTVSS VL: DVVLTQSPLSLPVTLGQPASISCRSSQSLENSNGNTFLNWFQQRPGQSPRLLIYKVSNRFSGVPDRFSGSGSGTDFTLKISRVEAEDVGVYFCLQVTHVPFTFGSGTKLEIKR | 3.55 | 0.00261 | 735000 | binds |  | 
8 | chimeric 7B4 antibody (antibody, human IgG2, kappa, V domains shown, Mouse variable regions with human IgG2/kappa constant regions) VH: EVQLQESGPGLVKPSQSLSLTCSVTGYSITTNYYWNWIRQFPGNKLEWMGYIKYDGSNNYNPSLKNRISITRDTSKNQFFLKLNSVTTEDTATYYCARLDYWGQGTSVTVSS VL: DIVLTQSPLSLPVSLGDQASISCRSSQSLENSNGNTFLNWFLQKPGQSPQLLIYKVSNRFSGVLDRFSGTGSGTDFTLTISRVEAEDLGVYFCLQVTHVPFTFGSGTKLEIKR | 3.6 | 0.0036 | 1e+06 |  |  | no binding
9 | chimeric 16A6 antibody (antibody, human IgG2, kappa, V domains shown, Mouse variable regions with human IgG2/kappa constant regions) VH: EVQLEQSGPGLVKPSQSLSLTCSVTGYSITTNYHWNWIRQFPGNKLEWMGYIKYDGSNNYNPSLKNRISITRDTSKNQFFLKLNSVTTEDTATYYCARLDYWGQGTSVTVSS VL: DIVLTQSTLSLSVSLGDQASISCRSSQSLENSNGNTFLNWFLQKPGQSPQLLIYKVSNRFSGVLDRFSGTGSGTDLTLTISRVEAEDLGVYFCLQVTHVPFTFGSGTKLEIKR |  |  |  |  |  | no binding
10 | chimeric 29A10 antibody (antibody, human IgG2, kappa, V domains shown, Mouse variable regions with human IgG2/kappa constant regions) VH: QVKLEQSGGGLVKPGGSLKLSCAASGFTFSHYYMYWVRQTPEKRLEWVATISDAGSYTYYSDSVKGRFTISRDNAKNNLYLQMSSLKSDDTAMYFCARTYYRGDGGYWFFDVWGAGTAVTVSS VL: DIVITQSTSSLAVSVGEKVTMSCESSQSLLYSSNQKNYLAWYQQKPGQSPKLLIYWASTRESGVPDRFTASGSGTDFTLTISSVKAEDLAVYYCQQYYRSPLTFGAGTKLELKR |  |  |  |  |  | no binding
11 | chimeric 92F6 antibody (antibody, human IgG2, kappa, V domains shown, Mouse variable regions with human IgG2/kappa constant regions) VH: QVQLEQSGAEVVKPGASVKVSCTASGFNIKDTYMHWVKQRPEQGLEWIGRIDPANGNTNYDPKFQGKATITADTSSNTGYLQLSSLTSEDTAVYYCSRWGYDWYFDVWGAGTSVTVSS VL: DIVITQSTAIMSASPGEKVTITCSASSSVSYIHWFQQKPGTSPKLWIYTTANLASGVPARFSGSGSGTSYSLTISRMEAEDAATYYCQQRSNYPFTFGSGTKLEIKR |  |  |  |  |  | no binding
12 | chimeric 77D9 antibody (antibody, human IgG2, kappa, V domains shown, Mouse variable regions with human IgG2/kappa constant regions) VH: QVKLEESGGGLVKPGGSLKLSCAASGFTFRNYAMSWVRQSPGERLEWVAEVSGSGYYTYYPDTVTGRFTISRDNANNTLYLEVSSLRSEDTAMYYCTSRAYWGQGTLVTVSA VL: IVMTQSPTLSLPVSLGDQASISCRSSQSIVLTNGNTYLEWYLQRPGQSPKLLIYKVSNRFSGVPDRFSGSGSGTDFTLKISRVEAEDLGVYYCFQGSHVPYTFGGGTKLEIKR |  |  |  |  |  | no binding
13 | chimeric 50F6 antibody (antibody, human IgG2, kappa, V domains shown, Mouse variable regions with human IgG2/kappa constant regions) VH: QVQLEQSGDDLVKPGASVKLSCKASGYTFTTYWINWIKQRPGQGLEWIGRISPGSGSTHYNEMFKGKATLTVDTSSSTAYIQLSSLSSEDSAVYFCTRNDYWGQGTTLTVSS VL: DIVLTQSPLSLPVSLGDQASISCRSSQSIVNSNGNTYLEWYLQKPGQSPKLLIYKVSNRFSGVPDRFSGSGSGTDFTLKISRVEAEDLGVYYCFQGSHVPLTFGAGTKLELKR |  |  |  |  |  | no binding
14 | chimeric 142F7 antibody (antibody, human IgG2, kappa, V domains shown, Mouse variable regions with human IgG2/kappa constant regions) VH: EVQLEQSGAELVRPGTSVKVSCKASGYAFTNYLIEWGIQRPGQGLEWIGVINPGTGGTNYNEKFKDKATLTTDKSSSTAYMQLSSLTSDDSAVYFCARGGSGFAYWGQGTLVTVSA VL: DIVLTQTTSSLSASLGDRVTISCRASQDINNYLNWYQQKPDGTVKLLIYYTSRLHSGVPSRFSGSGSGTDYSLTISNLEQEDIATYFCQQGNTLPWTFGGGTKLEIKR |  |  |  |  |  | no binding
